Laboratory results from paper PMC12756740, “A GH42 β‑Galactosidase from the Human Isolate Bifidobacterium breve DSM 20213: Biochemical and Transgalactosylation Properties Reveal the Potential for Galacto-oligosaccharides Synthesis” (ACS Omega, 2025).

Target: GH42 β-galactosidase Bbreβgal-III from Bifidobacterium breve DSM 20213 (Bifidobacterium breve DSM 20213)
Assay: SEC-MALS; OMNISEC multidetector GPC/SEC (RI, UV/Vis, RALS 90° + LALS 7°); 22 μL injected at 13.4 mg/mL, 0.5 mL/min, 20 °C, DPBS without Ca2+ and Mg2+; dn/dc 0.185 mL/g; oligomeric state of the enzyme

- stoichiometry N: 3
Substance: GH42 β-galactosidase Bbreβgal-III from Bifidobacterium breve DSM 20213 (enzyme)
